Substrate in this data set: CC1=CC(=O)[C@@H]2c3cc4cccc(O)c4c(O)c3C(=O)C[C@]2(O)C1
The experiment in a line: HPLC of dehydrorabelomycin formation. Type of data set: biochemical, Micromonospora rosaria. The settings on record: 2 mM NADPH, 50 mM phosphate pH 7.0, 30 °C.

B1: FlsO1 (Micromonospora rosaria) (protein)
chain: MNTIDAEVIIVGAGPTGLMLAGELRLNNVSTIVLDRLAEPMQQSRALGFSARTIEEFDQRGLLARFGEVGTIPFGHFGGVPLDYRVIKGGSYGARGIPQSRTEGMLAQRAVELGAELRRGQEVVSIDDDGTGVAVVVRTADGEQTLRAKYLVGADGARSTVRKAAGIDFPGTDPTMEMWLADVAGCDLRLRFSGELVPGGMVMVLPLGPVAQRVVVFEHATGLRNSTEPPTFAEVADAFERLTGEDIRGGKPLWVSWFTDSSRQAAEYRRGRILLAGDAAHIHMPIGGQGMSAGIQDAVNLGWKLAAEIHGHAPEGLLDTYHTERHPVDGRVVMNTLAQRWLYLGGEAMQPLRELLGELVRYPDVQEHLVGMVTGLDIRYDVGAGEHPLLGRRIPNQELVGEFDGSGKSTTFEQLHRGRGVLFAFGDDTAGPQAATGWTDRVDVVRATPHTADPDDPFHGLDAVLVRPDGYVAWVAPAGAGAAGLDEALSRWFGPSR
notes: (His)6-tagged, pET28a (pCSG5205), E. coli BL21(DE3); Ni-NTA; homodimer; crystals from Q108G/R109G surface mutant
Broadly, the Km is the substrate concentration at which the rate is half of its maximum. B1: the Michaelis-Menten constant (Km) (0.5 μM enzyme) was 253.4 µM.

B2: FlsO2 (Micromonospora rosaria) (protein)
chain: MDTDVIVVGAGPTGLMLAGELRLGGARVVLVERLAEPTGQSRGLGFTARAMETLDQRGLLPRFGELETSPRGHFGGVQFDYSVLPDAHFGARGVPQSQTEDVLEKWATETGVDIRRGWELRELTDDGSGVTIVADTPDGTRQLRAAYLVGCDGGQSTVRKLVGFEFEGTPATRGMYLADVVGCALRPRFLGEKLANGMVMAAPLAEGVDRIIVCEHGTPPTERERQVSFEEVAAAWERITGESISHGGSLWVSSFTDATRQATEYRRGRVLLAGDAAHIHLPAAGQGLSVGVQDAANLGWKLAAVVRGHAPEGLLDTYHDERHPVGARLLLNTRVQNAVFLGGEEAEPLRTLFTELISYDTVGRHLAGMVSGLEVRYDVGAGDHPLLGRRLPPRALHGAAGATTTTELLHPATGVLLDLTDDAGLRAVAAGYGDRVAVTVATSDAAEFAGVPALLVRPDGYVAWVGAEPDGLAAALRRWFGEPAPAGQ
notes: expressed from pCSG5102 (previously constructed), E. coli BL21(DE3); purified similarly to FlsO1
Regarding B2, the Km (0.25 μM enzyme) stood at 143.2 µM.
